Legend:
[1] = biological target: human c-Met on cells (BaF3-hMet transfected with full-length human c-Met cDNA; A549 and H358 cells) (human, UniProt P08581 25-1390); experiment: cell-based or functional assay
canine HGF receptor = canine HGF receptor (canine, UniProt Q75ZY9 25-935, limits assumed); experiment: cross-species binding test, method not described (data not shown)
[2] = biological target: murine (mouse) HGF receptor (murine (mouse), UniProt P16056 25-931, limits assumed); experiment: as above
[3] = biological target: T1, cMet-Ig protein (biotinylated) (UniProt P08581 25-929, biotinylated with NHS-X-biotin); experiment: electrochemiluminescent competition assay: antibody (3333-0.21 nM) against HGF-Ruthenium Tag binding to cMet-Ig-biotin
T1 construct: Purified cMet-Ig produced at Genentech; also called cMet-Ig-biotin; not shown: Ig part not described
Experimental: (§1) Purified cMet-Ig protein produced at Genentech (South San Francisco, Calif.) was biotinylated by incubating with 20-fold molar excess NHS-X-Biotin in 0.1 M NaHCO3, pH 8.5 using biotin-X-NHS (Research Organics, Cleveland, Ohio). Purified human 2-chain HGF produced at Genentech was labeled with BV-TAG (cat #110034) via NHS-ester chemistry according to manufacturer's directions (BioVeris International, Gaithersburg, Md.). cMet-Ig-biotin (500 ng/mL), HGF-Ruthenium Tag (250 ng/mL), and titrations of OA5D5 antibody ranging from 3333-0.21 nM of antibody were incubated together in a volume of 100 ul of assay diluent: PBS ±0.5% BSA/0.5% Tween 20/0.033% Proclin (Supelco Inc. Bellefonte Pa.). The mixtures were incubated in sealed polypropylene round bottom 96 well plates (Corning) for 2-4 hours at room temperature with shaking Streptavidin magnetic beads (Dynabeads, BioVeris) were added. Following a final 45 min incubation with vigorous shaking, the plates were read using a BioVeris M-Series instrument (BioVeris International, Gaithersburg, Md.).

[4] = biological target: T1, cMet-Ig protein (biotinylated); experiment: electrochemiluminescent competition assay in solution: inhibition of 2.5 nM HGF-Tag (ruthenium-labelled HGF) binding to 5 nM cMet-biotin; antibody titrated
Experimental: as §1

[5] = biological target: T2, human HGF receptor Fc fusion (HGFR-Fc) (human, UniProt P08581 25-929, limits assumed); experiment: SPR (BIAcore-2000), Fab injected over immobilized HGFR-Fc; humanized clone (5D5 graft plus R94S) as Fab
T2 construct: Generated and used as an Fc fusion; also called HFGR-Fc; b-HGFR-Fc (biotinylated)
Experimental: (§2) Affinity determinations were performed by surface plasmon resonance using a BIAcore™-2000. HGFR-Fc was immobilized (˜1000 response units (RU)) on a CM5 chip and varied concentrations of Fab (4 to 500 nM) in PBST were injected. After each injection the chip was regenerated using 100 mM HCl. Binding response was corrected by subtracting the RU from a blank flow cell. A 1:1 Languir model of simultaneous fitting of kₒₙ and koff was used for kinetics analysis.
A library was generated in which each of the HVR regions of the 5D5 graft was soft randomized. This library was panned against immobilized HGFR-Fc for 4 rounds of selection. […] Analysis of this clone by phage ELISA indicated it had similar affinity to that of the monovalent affinity of murine 5D5. […] Thus this unexpected substitution restores full binding affinity to the 5D5 graft, and the 5D5 graft plus R94S (hu5D5.v1) represents a fully humanized antibody. […] MacCallum et al. (MacCallum et al. J. Mol. Biol. 262: 732-745 (1996)) have analyzed antibody and antigen complex crystal structures and found positions 93 and 94 of the heavy chain are part of the contact region thus it seems reasonable to include these positions in the definition of hypervariable region of H3 (HVR-H3) when humanizing antibodies.

[6] = biological target: T2, human HGF receptor Fc fusion (HGFR-Fc); experiment: SPR (BIAcore-2000), HGFR-Fc immobilised on a CM5 chip, Fab injected at 4 to 500 nM, 1:1 Langmuir fit
Experimental: as §2

[7] = biological target: T2, human HGF receptor Fc fusion (HGFR-Fc); experiment: SPR (BIAcore-2000), HGFR-Fc immobilised on a CM5 chip
[8] = biological target: T2, human HGF receptor Fc fusion (HGFR-Fc); experiment: SPR (Biacore), monovalent affinity, HGFR-Fc; murine 5D5, monovalent affinity
[9] = biological target: T2, human HGF receptor Fc fusion (HGFR-Fc); experiment: SPR (BIAcore-2000), HGFR-Fc immobilised on a CM5 chip, 1:1 Langmuir fit
Experimental: as §2

[10] = biological target: T2, human HGF receptor Fc fusion (HGFR-Fc); experiment: SPR (Biacore), Fab over immobilized HGFR-Fc; reference hu5D5.v1
Experimental: as §2
Affinity maturation of hu5D5.v1 —To improve the affinity of hu5D5.v1, six phage display libraries were generated in the background of hu5D5.v1, each targeting a single HVR for soft randomization. To avoid re-selecting hu5D5.v1 from a potential high background of wild-type template, stop codons were introduced into the HVR to be mutated prior to generating each library. A solution sorting method was used to enhance the efficiency of the affinity-based phage selection process. By manipulating the biotinylated target concentration, reducing the phage capture time to lower backgrounds and the addition of unbiotinylated target to eliminate clones with faster off rates, high affinity clones can be proficiently selected. Lee et al., supra. […] After 4 rounds of selection, clones from each of the […] library pools were analyzed. […] Selected clones were screened by phage ELISA and then expressed as Fab protein and their affinity determined using Biacore. […]

B1: OA-5D5.v2 one-armed anti-Met antibody (antibody)
light: DIQMTQSPSSLSASVGDRVTITCKSSQSLLYTSSQKNYLAWYQQKPGKAPKLLIYWASTRESGVPSRFSGSGSGTDFTLTISSLQPEDFATYYCQQYYAYPWTFGQGTKVEIKRTVAAPSVFIFPPSDEQLKSGTASVVCLLNNFYPREAKVQWKVDNALQSGNSQESVTEQDSKDSTYSLSSTLTLSKADYEKHKVYACEVTHQGLSSPVTKSFNRGEC
heavy: not shown
chain: not shown
notes: also called rhuOA5D5v2; one-armed 5D5.v2
With B1 as the binder, how does the “inhibition of HGF receptor activation (KIRA, HGF-dependent Met phosphorylation in A549 cells); IC50 relative to comparator antibodies” value [1] read?
The value was < 0.5 fold of the comparator's IC50.

And the “inhibition of cell proliferation in the presence of HGF (BaF3-hMet cells); IC50 relative to comparator antibodies” value [1]?
Its value is < 0.5 fold of the comparator's IC50.

Does B1 bind (canine HGF receptor)?
Result: no binding

Does B1 bind [2]?
Result: no binding

What about the “IC50 relative to comparator antibody (chimeric one-armed antibody, OA-5D5.v1)” value [3] of the same binder?
The value was < 0.5 fold of the comparator's IC50.

And the IC50 [4]?
Its IC50 is 1 nM.

B2: hu5D5.v1 (5D5 graft plus R94S), expressed as Fab (Fab, V domains shown)
VH: EVQLVESGGGLVQPGGSLRLSCAASGYTFTSYWLHWVRQAPGKGLEWVGMIDPSNSDTRFNPNFKDRFTISADTSKNTAYLQMNSLRAEDTAVYYCASYGSYVSPLDYWGQGTLVTVSS
VL: DIQMTQSPSSLSASVGDRVTITCKSSQSLLYTSSQKNYLAWYQQKPGKAPKLLIYWASTRESGVPSRFSGSGSGTDFTLTISSLQPEDFATYYCQQYYAYPWTFGQGTKVEIK
notes: Fab made in E. coli from the phage display vector (human CL and CH1); also called this clone
Which Kd [5] does the source give for B2 here?
The Kd was 9.8 nM.

And the koff [6]?
The koff was 0.000507 s⁻¹.

And the kon [6]?
Its kon is 51600 M⁻¹ s⁻¹.

B3: 5D5 graft (direct HVR-graft of murine 5D5 into the human acceptor framework), displayed as an Fab on phage (Fab, V domains shown)
VH: EVQLVESGGGLVQPGGSLRLSCAASGYTFTSYWLHWVRQAPGKGLEWVGMIDPSNSDTRFNPNFKDRFTISADTSKNTAYLQMNSLRAEDTAVYYCARYGSYVSPLDYWGQGTLVTVSS
VL: DIQMTQSPSSLSASVGDRVTITCKSSQSLLYTSSQKNYLAWYQQKPGKAPKLLIYWASTRESGVPSRFSGSGSGTDFTLTISSLQPEDFATYYCQQYYAYPWTFGQGTKVEIK
notes: subgroup III VH with R71A, N73T, L78A; grafted L1 24-34, L2 50-56, L3 89-97, H1 26-35, H2 49-65, H3 95-102; R at 94); In the assay it was a monovalent Fab-g3 fusion on phage with human CL and CH1 of the vector; also called direct HVR-graft of 5D5
Does B3 bind [7]?
Result: no binding (tested: 500 nM)

B4: murine 5D5 anti-c-met antibody, monovalent form (Fab, V domains shown)
VH: QVQLQQSGPELVRPGASVKMSCRASGYTFTSYWLHWVKQRPGQGLEWIGMIDPSNSDTRFNPNFKDKATLNVDRSSNTAYMLLSSLTSADSAVYYCATYGSYVSPLDYWGQGTSVTVSS
VL: DIMMSQSPSSLTVSVGEKVTVSCKSSQSLLYTSSQKNYLAWYQQKPGQSPKLLIYWASTRESGVPDRFTGSGSGTDFTLTITSVKADDLAVYYCQQYYAYPWTFGGGTKLEIKR
notes: also called mu5D5; hybridoma 5D5.11.6 (ATCC HB-11895)
What does the source list for B4?
Kd [8]: 8.3 nM; koff [9]: 0.000743 s⁻¹; kon [9]: 89800 M⁻¹ s⁻¹

B5: hu5D5.v2 (clone 78), expressed as Fab (Fab, V domains shown)
VH: EVQLVESGGGLVQPGGSLRLSCAASGYTFTSYWLHWVRQAPGKGLEWVGMIDPSNSDTRFNPNFKDRFTISADTSKNTAYLQMNSLRAEDTAVYYCATYRSYVTPLDYWGQGTLVTVSS
VL: DIQMTQSPSSLSASVGDRVTITCKSSQSLLYTSSQKNYLAWYQQKPGKAPKLLIYWASTRESGVPSRFSGSGSGTDFTLTISSLQPEDFATYYCQQYYAYPWTFGQGTKVEIKR
notes: Differs from hu5D5.v1 by 94T, 96R and 100T (Kabat, VH); Fab made in E. coli from the phage display vector (human CL and CH1)
B5 was tested. Which “fold affinity improvement (against hu5D5.v1)” value [10] did it give?
Its value is 13 fold.

And the Kd [6]?
Its Kd is 0.625 nM.

What about the koff [6] of the same binder?
The koff was 0.000147 s⁻¹.

And the kon [6]?
The kon was 236000 M⁻¹ s⁻¹.

B6: chimeric one-armed 5D5 antibody (Fab arm from the murine parent 5D5 antibody fused to a human Fc region) (antibody, V domains shown)
VH: QVQLQQSGPELVRPGASVKMSCRASGYTFTSYWLHWVKQRPGQGLEWIGMIDPSNSDTRFNPNFKDKATLNVDRSSNTAYMLLSSLTSADSAVYYCATYGSYVSPLDYWGQGTSVTVSS
VL: DIMMSQSPSSLTVSVGEKVTVSCKSSQSLLYTSSQKNYLAWYQQKPGQSPKLLIYWASTRESGVPDRFTGSGSGTDFTLTITSVKADDLAVYYCQQYYAYPWTFGGGTKLEIKR
notes: also called rchOA5D5; chimeric one-armed antibody
With B6 as the binder, how does the IC50 [4] read?
The IC50 was 2.6 nM.

B7: OA-5D5.v1 one-armed anti-Met antibody (antibody, V domains shown)
VH: EVQLVESGGGLVQPGGSLRLSCAASGYTFTSYWLHWVRQAPGKGLEWVGMIDPSNSDTRFNPNFKDRFTISADTSKNTAYLQMNSLRAEDTAVYYCASYGSYVSPLDYWGQGTLVTVSS
VL: DIQMTQSPSSLSASVGDRVTITCKSSQSLLYTSSQKNYLAWYQQKPGKAPKLLIYWASTRESGVPSRFSGSGSGTDFTLTISSLQPEDFATYYCQQYYAYPWTFGQGTKVEIK
notes: One-armed antibody named only as another antibody of the invention (OA-5D5.v1); Its constant domains and Fc polypeptides are not described; also called rhuOA5D5v1
With B7 as the binder, how does the IC50 [4] read?
The IC50 was 5.4 nM.
